In assay [1] the target is KAT1 K+ channel of Arabidopsis, myc-tagged (Arabidopsis) (UniProt Q39128).
Assay [2] has the same target. The source holds these as a separate data set.

In article PMC6220998 one finds amount of SYP121^ΔC in the oocyte that gives a near-maximal effect on KAT1 gating (roughly 0.4 ng per oocyte) and single-channel open probability Po of KAT1 data, which are given here for 2 substances.

Chain of UniProt Q39128 (Q39128 whole entry): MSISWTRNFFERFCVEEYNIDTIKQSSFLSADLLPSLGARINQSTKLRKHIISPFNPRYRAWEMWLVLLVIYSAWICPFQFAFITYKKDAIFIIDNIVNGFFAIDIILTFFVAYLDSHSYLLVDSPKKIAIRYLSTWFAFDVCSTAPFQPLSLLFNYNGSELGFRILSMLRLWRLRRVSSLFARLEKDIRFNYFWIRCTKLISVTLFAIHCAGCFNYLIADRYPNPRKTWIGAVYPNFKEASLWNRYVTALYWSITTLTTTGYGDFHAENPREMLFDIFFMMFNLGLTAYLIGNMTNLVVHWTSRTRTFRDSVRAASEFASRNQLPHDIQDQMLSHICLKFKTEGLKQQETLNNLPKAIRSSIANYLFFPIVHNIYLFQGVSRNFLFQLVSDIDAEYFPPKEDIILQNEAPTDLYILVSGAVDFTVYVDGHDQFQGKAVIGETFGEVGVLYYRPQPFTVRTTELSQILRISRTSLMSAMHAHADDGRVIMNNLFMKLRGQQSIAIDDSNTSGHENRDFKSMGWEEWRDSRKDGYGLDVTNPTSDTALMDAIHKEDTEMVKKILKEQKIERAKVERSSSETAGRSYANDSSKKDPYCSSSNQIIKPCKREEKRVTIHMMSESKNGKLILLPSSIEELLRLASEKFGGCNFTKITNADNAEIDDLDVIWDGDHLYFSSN

In assay [1], “SYP121^ΔC, cytosolic SNARE domain, expressed in oocytes (domain or fragment)” yielded an amount of SYP121^ΔC in the oocyte that gives a near-maximal effect on KAT1 gating (roughly 0.4 ng per oocyte) of 0.14 µM.

With “SYP121^ΔC, soluble cytosolic domain, recombinant (domain or fragment)”, the single-channel open probability Po of KAT1 at −120 mV after adding 1 μM SYP121^ΔC to inside-out patches in assay [2] amounted to 3.4%.
